# Values quoted from earlier work in paper PMC9256694.
# Molecular target: IL-2 receptor beta/gamma common chain (Homo sapiens) (UniProt P14784)
# Chain of UniProt P14784 (P14784 27-240, chain 1 of 2): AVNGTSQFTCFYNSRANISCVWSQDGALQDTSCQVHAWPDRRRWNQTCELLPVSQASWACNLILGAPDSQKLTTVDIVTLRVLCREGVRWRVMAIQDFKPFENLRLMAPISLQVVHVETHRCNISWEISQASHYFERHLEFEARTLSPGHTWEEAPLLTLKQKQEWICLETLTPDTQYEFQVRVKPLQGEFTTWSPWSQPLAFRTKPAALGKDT
# Chain of UniProt P14784 (P31785 23-262, chain 2 of 2, further chain): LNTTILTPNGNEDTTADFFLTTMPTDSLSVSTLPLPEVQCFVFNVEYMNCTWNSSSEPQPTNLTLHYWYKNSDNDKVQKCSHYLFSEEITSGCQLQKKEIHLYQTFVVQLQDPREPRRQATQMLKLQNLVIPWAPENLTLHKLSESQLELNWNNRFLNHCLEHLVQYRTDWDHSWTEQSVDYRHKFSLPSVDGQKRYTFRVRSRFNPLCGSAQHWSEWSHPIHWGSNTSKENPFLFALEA
# Chain of IL-2 (P60568 21-153): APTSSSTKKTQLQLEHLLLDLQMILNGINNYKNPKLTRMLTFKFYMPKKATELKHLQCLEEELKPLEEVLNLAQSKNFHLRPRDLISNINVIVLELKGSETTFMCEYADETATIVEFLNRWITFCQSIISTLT
substance,measurement,value
IL-2 (from UniProt P60568),Kd,1 nM
